Measurements: the nanobody polyreactivity screen of Harvey et al. (2022)

Assay: yeast display, Sf9 membrane polyspecificity reagent, FACS + sequencing; frameworks hold sequencing errors
Outline: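 A synthetic nanobody library was expressed on Saccharomyces cerevisiae BJ5465 by galactose induction for 36–48 hours. The library was stained for 1 hour at 4 °C with 10% biotinylated, detergent-solubilized Sf9 membrane reagent and enriched with streptavidin microbeads before FACS. Low and high (top ~1%) gates were set on anti-HA fluorescence for expression and streptavidin fluorescence for reagent binding, and each polyreactivity label reflects the gate of origin.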

| Sequence | polyreactivity (PSR sort gate) |
| --- | --- |
| QVQLVESGGGLVQGGGSLRFSCAASGSTFPSYARGWYRQAPGKERELVAAINSGGGTNYADSVKGRFTISRDNAKNTVYLHMNSLKPEDTAVYYCAKSRYDYTKTEGGYWGQGTQVTVSS | low polyreactivity |
| QVQLVESAAGLVQAGGSLRLSGAASGRIFRYNAMGGYRQAPGNERELVAAISSGGSTNYADSVKGRFTTSRDNAKNTVYLQMNSLKPEDTAVYYCNADSVHRYPGWGYDYWGLGTQVTVSS | low polyreactivity |
| QDQLVESGGGLVQAGGSLRLSCAASGSIFPYNAMGWYRQAPGKERELVATISSGGSTNYADSVKGRFTISRDNAKNTVYLQMNSLKPEDTAVYYCAAVVIVFYYAPNYWGDIEYGYWGQGTQVTVSS | low polyreactivity |
| QVQLEESGGGIVQAGGSLRLSCAASGSIFGGYAMGWYRQAPGKEREFFAAISWTSGRTTYADSVKGRFTISRDYAKNTVYLQMNSLKPEDTAVYNCAKRYGIWYPSYADRGSDYRYGYWGQGTQVTVSS | high polyreactivity |
| QVHLVESGGGLVQAGGSLRLSCASYGSTLELNAMGWYRQAPGKERELVAAITSSGGRTYYADSVKGRFTISRDNAKNTVYLQMKSLKPEDTAVYYCAAEPGQQRVVDRYDYWGQGTQVTVSS | low polyreactivity |
| QVQLVESGGGLVQAGGSLRLSCAASGNTFLVNAKGWYRQAPGKERELVATIRRGGSTNYADSVKGRFTISRDNAKNTVYLLMNSLKPEDTAVYYCNADRVGYWSSNMDYWGQGTEVTVSS | low polyreactivity |
| QVQLVESGGGLVQAGGSLRLSCAASGRIITAYAMGWNRQAPGKEREFVAAINVSGGSTYYADSVKGRFTISRDNAKNTVYLQMNSLKPEDTAVYYCNADYYYYDIYWWKMDYWGQGTQVTVSS | low polyreactivity |
| QVQLVESGGGLVQAGGSLRLSCAASGLTFVEYAMGWYRQAPGKEREFVAAIRSRGGSTYYADSVKGRFTISRDNAKNTVYLQMNSLKPEDTAVYYCTADGYFWGQGTQVTVSS | low polyreactivity |
| QVQLVESGGGLVQAGGSLRLSCAASGSIFYRNAMGWYRQAPGKERELVAAISSDGSTNYADSVKGRFTISRDNAKNTVYLQMNSLKPEDTAVYDCAGLQKRRSYWRPFYWGQGTQVTVSS | low polyreactivity |
| QVQLVESGGGLVQAGGSLRLSCADSGSTFRYYAMGWYRQAPGKERELVAAITKNGGSTYYADSVKGRFTISRDNAKNTVYLEMNSLKPEDTAVYYCAVQFSYSGWYYVSYYYWGQGTQVTVSS | high polyreactivity |
| QVQLVESGGGLVQAGGSLRLSCAASGFTFFSNAMGWYRQAPGKERELVAAITSSGGSTYADSVKGRFTISRDNAKNTVYLQMNSLKPEDTAVYYCAAELYDYGDLYYSEYDYWGQGTQVTVSS | low polyreactivity |
| QVQLVESGGGLVQAGGSLRLSCAASGRTFYYAMGWYRQAPGKERELVAAISWSGGRTYYADSVKARFTISRDNAKNTVYLQMNSLKPEDTAVYFCAAIYYYSPRDGFIYWGQGTQVTVSS | high polyreactivity |
| QDQLVESGGGLVQAGGSLRLSCAASGRIFGINAMGWYIPAPGKERELVAAINWSGGSTYYADSVKGRFTISRDNAKNTVYLQMNSLKPEDTAVYYCATYQAGYYQSTYDYWGPGTQVTVSS | high polyreactivity |
| QVQLVESGGGLVQAGGSLRLSCAASGSTLRGYAMGWYRQAPGEERELVAAISRRGSGTYYADSVKGRFTISRDNAKHTVYLQMNSLKPEETAVYYCNAVNGDYEFGYWGQGTQVTVSS | high polyreactivity |
| QVQLVESVGGLVQAGRSLRLSCAASGSIFLRNAMGWYRQPPGKERELVASITWNGASTSYADSVKGRFTISRDNAKNTVYLQMNSLKPEDTAVYYCAAVTVQDSNLKYGYWGQGTQVTVSS | low polyreactivity |
| QVQLVESVGGLVQAGVSLRLSSAASGSTLKQYAMGWFRQSPGKERELVGAITRSGSSTYYADSVKGRFTISRDNAKNTVYLPMNRLKREDTAVYYCDVGCWKGDYYWGLGTQVTVSS | high polyreactivity |
| QVQLVESGGGLVQAGGSLRLSCAASGYTIESYGMGWYRQAPGKDREMVAAIDWSGGSTYYADSVKGRFTISRDNAKNTVYLQMNSLIPEDTAVYYCNRDSAGPGDVILAYTGNDYWGQGTQVTVSS | low polyreactivity |
| QVQLEESGGGLVQAGGSLRLSCASSGSTFATYAMGWDRQAPGKERELVAGISKRGGRTYYADSLKGRFTISRDNAKNTVYFQMNSLKPEDTAVYYCARYSPYYRVKDYDSWGQGTQVTVSS | high polyreactivity |
| QVQLVESGGGLVQAGGSLRLSCAASGITFEPYAMGWYRQAPGKEREFVADITWSGGSTYYADSVKGRFTISRDNAMNTGYLQMNSLKPEDTAVYYCAADGWTSYWSDYWGQGTQVTVSS | low polyreactivity |
| QVQLVESGGGLVQAGGSLRLSCAASGRIFGYNAMGWYRQAPGKEREFVAAITYRGGSTYYADSVKGRFTISRDNAKTTVYLEMNSLKPEDTAVYYCASRVTQYPKYWGDYWGQGTQVTVSS | high polyreactivity |
| QVQLVESGGGLVQAGGSLRLSCAASGRIFLYYAMGWYRQAPGKERELVAAISRRGASTYYADSVKGRFTISRDNAKNTVYLQMNSLKPEDTAVYYCATVPGKSGDYWGQGTQVTVSS | high polyreactivity |
| QVQLVESGGGLVQAGGSLRLSCAASGSIFDWYDMGWYRQAPGKEGELVAAISSGDSTYYADSVKGRFTISRDNAKNTVYLQMNSLKPEDTAVYYCAAVTKLSGIRYNYWGQGTQVTVSS | low polyreactivity |

| Sequence | polyreactivity (PSR sort gate) |
| --- | --- |
| QVQLVESGGGLVQAGGSLRLSCAASGSTFVFYTMGWYRPAPGKERELVAGISRNGGSTYYADSVKGRFTISRDNAKNTVYLQMNSLKTEDSAVYYCAALTWSRAYYSRKFYYWGQGTQVTVSS | high polyreactivity |
| QVQLVESGGGLVQAGGSLRLSCAASGRTFALNALGWSRQAPGKERELVAAISWSSGRTYYADSVKGRFTISRDNAKNTVYLQMNSLKPEDTAVYYCAALVAHKGDYWGQGTQVTVSS | high polyreactivity |
| QVQLVESGGGLVQAGGILRLSCADSGRTFGSNAMGWYRQAPGKERELVAAISGRTDSTYYADSVKGRFTISRDNAKNTVYLQMNSLKPEDTAVYYCAADSADVLYYYIRYNYWGQGTQVTVSS | low polyreactivity |
| QVQLEESGGGLVQPGGSLRLRCAASGITFYWNAMGWYRQAPVKERELVAGITNSGGGTYYADSVKGRFTISRDNSMYTVYLLMNSLKPEDSAVYYCAAEPTSWYFFYYVGDYLGQGTQVTVSS | high polyreactivity |
| QVQLQDSGGGLVQAGGSLRLSCAASGTISYRYRMGWYRQAPRKELELVAGIRFGSITYYADSVKGRFTISRDNAKNTVYLQMNSLKPEDIAVYYCAVYQKSYRFFPYWGQGTQVTVSS | high polyreactivity |
| QVQLQESGGGLEQAGGSLRMSCAANGNIFDADIVGRYRQAPGKKRELVASITDGGITNYADSVKGRFTISRDNAKYTVYLQMNSQNPEDTAVYYCAAIAYPDIPTYFDYDSDFFYWGQGTQVTVSS | high polyreactivity |
| QVQLVESGGGLVQSGGSLRLSCAASGSIFNRYAMGWYRQAPGKERELVAAISARGGSTYYADSVKGRFTISRDNAKNTVYLQMNSLKPEDTAVYYCAARRQGDYYYWGQGTQVTVSS | high polyreactivity |
| QVQLVESGGGLVQAGGSLRLSCAASGSIFGVNAMGWYRQAPGKERELVAAISRGTSTSYADSVKGRFTISRDNAKNTVYLQMNSLKPEDTAVYYCAAEVYWRGWWYGYWGQGTQVTVSS | high polyreactivity |
| QVQLVESGGGLVQAGGSLRLSCAASGRTFYSYAMGWSRQAPGKERELVAAISRAGGTYYADSVKGRFTLSRDNAKNTVYLQMNSLKPEDTAVYYCAARQAVYGLRSDFYYWGQGTQVTVSS | high polyreactivity |
| QVQLVESGGGIVQAGGSLRLSCAASGITFDGYAMGWYRQAPGKERELVAGISWSGARTYYADSVKGRFTISRDNAKNTVYLLMNSLKPEDTALYYCNKVSLRNHGGYDYWGQGNQVTVSS | high polyreactivity |
| QVQLVESGGGLVQAGGSLRLSCAASGRIFYFYAMGGYRQAPGKERELVAAISRRGGTTNYADSVKGRFTISRDNAKNTVYLQMNSLKPEDTAVYYCAADYQSVGGAEYDYWGQGTQVTVSS | high polyreactivity |
| QVQLVESGGGLVQAGGSLRLSCAASGRTFYKYAMGWYRQAPGKEREFVADISSRGGSTYYADSVKGRFTISRDNAKNTVYLQMNSLKPEDTAVYYCAARPRPRSANGMYYWGQGTQVTVSS | high polyreactivity |
| QVHLVESGGGLFQAGGSLRLRCAASGRIFRYNTMGWYRQAPGKERELVAAINSSGGRTYYADSVKGRFTISRDNAKNTVYLQMNSLKPDDTAVYYCAAVIYVLSGPGYDYWGQGTQVTVSE | high polyreactivity |
| RVHLQESGGGLVQAGGSLRLSCAASGTIFIRGDMGWYRQAPGKEREFVATIDTVSNTYYADSEKGRFTISRDNAKNAVYLQMNCLNPGDTAVYYCVVDYQLAGRLRYWGQGTQVTLSS | low polyreactivity |
| QDQIVESGGGLVQAGGSLRLSCAASGSTFQANAMGWYRQAPGKERELVAAISRSGGSTYYADSVKGRFTISRDNAKNTVYLQMNSLKPEDTAVFYCAADYEYSGYGYWGQGTQVTVSS | high polyreactivity |
| QVQLVESWGGLFQAGGRLRLSSAASGFTFPRYAMGWYRHSPGKERELVAAISRGGSTNYADSVKGRFTISRDNAMNTVYLQMNSLKPEVTAVYYCNVRLEYRYYRGDYWGQGTQVTVSS | high polyreactivity |
| QVQLVESGGGLVQAGGSLRLSCAASGRIFVTYAMGWYRQAPGKERELVAAITSRGGRTYYADSVKGRFTISRDNAKKTVYLQMNSLKPEDTAVYYCAAYPGPGARYYYWGQGTQVTVSS | high polyreactivity |
| QVQLVESGGGLVQAGGSLRLSCAASGLIFVQNAMGWYRQAPGKEREFVAAISAGGTRTYYADSVKGRFTISRDNAKNTVYLQMNSVKPEDTAVYYCAAASGYDYWGQGTQGTVSS | high polyreactivity |
| QVQLVESGGGLVQAGGSLRLSCAASGRIFKTNAMGWYRQAPGKERELVAAISRSGSRTSYADSVKGRFTISRDNAKNTVYLQMNSLKPEDTAVYYCATRGLYWKVGYWGQGTQVTVSS | high polyreactivity |
| QVQLVESGGGLVQAGGSLRLSCAASGFIFPTNTMGWYRQAPGKEREFVARITRSGTNTYYADSVKGRFTISRDNAKNTVYLQMNSLKPEDTAVYYCARRGTSSYRRYWLDSASNMDYWGQGTQVTVSS | high polyreactivity |
| QVQLVESGGGLVQAGGSLRLSCAASGNTFKVYVMGWYRQAPGKERELVAAISRRGGNTYYADSVKGRFTISRDNAKNTVYLQMNSLKPEDTAVYYCAAYRAPYYEYDYWGQGTQVTVSS | high polyreactivity |
